Experimental data published in article PMC4778250 (ACS Central Science, 2015).

Key:
[1] = target: T1, mouse Class II MHC complex (Mus musculus C57BL/6 (H-2b; I-A b), UniProt P14434;P14483); assay: flow cytometry on cells
[2] = target: T1, mouse Class II MHC complex; assay: flow cytometry on cells; remark: listed apart in the source

T1 sequence (P14434 24-256, chain 1 of 2): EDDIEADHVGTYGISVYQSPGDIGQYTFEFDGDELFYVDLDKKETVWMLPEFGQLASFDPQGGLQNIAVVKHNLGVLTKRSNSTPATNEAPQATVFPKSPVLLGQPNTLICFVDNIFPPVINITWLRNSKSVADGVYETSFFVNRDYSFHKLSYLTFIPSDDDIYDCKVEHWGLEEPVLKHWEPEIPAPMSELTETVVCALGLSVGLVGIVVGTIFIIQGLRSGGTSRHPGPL
T1 sequence (P14483 28-265, chain 2 of 2): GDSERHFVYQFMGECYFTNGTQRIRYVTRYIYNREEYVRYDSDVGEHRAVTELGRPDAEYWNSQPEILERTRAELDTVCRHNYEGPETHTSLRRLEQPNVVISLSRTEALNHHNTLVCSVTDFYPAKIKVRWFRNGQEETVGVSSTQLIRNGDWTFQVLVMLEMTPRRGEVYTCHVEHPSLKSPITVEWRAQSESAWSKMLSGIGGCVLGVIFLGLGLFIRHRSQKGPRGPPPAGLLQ

B1: VHH7 (anti-mouse Class II MHC single domain antibody) (VHH)
VHH: QVQLQESGGGLVQAGDSLRLSCAASGRTFSRGVMGWFRRAPGKEREFVAIFSGSSWSGRSTYYSDSVKGRFTISRDNAKNTVYLQMNGLKPEDTAVYYCAAGYPEAYSAYGRESTYDYWGQGTQVTVSS
**Q.** For B1, which EC50 [1] is on record?
**A.** 55 to 60 nM

B2: VHH4 (specific for human Class II MHC) (VHH)
VHH: QVQLQESGGGLVQAGGSLRLSCAASGSTLSSYGMGWYRQAPGKQREVVATISATGSISYADSVKGRFTISRDSAKNTMYLQLNSLTPEDTAVYYCNTIYRSTLYWGQGTQVTVSS
**Q.** Does B2 bind [2]?
**A.** no binding
